{
  "source": "paper PMC4494898",
  "target": "Egr-1 (Zif268) zinc-finger protein (UniProt P18146 335-423)",
  "assay": "fluorescence anisotropy",
  "data": [
    {"binder": "12-bp competitor duplex (dsDNA) DNA 1: TATGTAGGCGGT DNA 2: ACCGCCTACATA", "values": [
      {"measurement": "Kd", "result": 29, "unit": "nM"}
    ]}
  ]
}
